Results: patent US20240043507A1 (RQ BIOTECHNOLOGY, published 2024)

biological target: T1, SARS-CoV-2 receptor binding domain (RBD), native (SARS-CoV-2, UniProt P0DTC2 330-532); test: BLI, Fab and RBD
T1 construct: range 330-532

Binder | Kd [nM] | koff [s⁻¹] | kon [M⁻¹ s⁻¹]
Fab 158 (Fab, V domains shown) VH: EVQLLESGGDLIQPGGSLRLSCAASGVTVSSNYMSWVRQAPGKGLEWVSIIYPGGSTFYADSVKGRFTISRDNSKNTLYLQMHSLRAEDTAVYYCARDLGSGDMDVWGKGTTVTVSS VL: DIVMTQSPSFLSASVGDRVTITCRASQGISSYLAWYQQKPGKAPKLLIQAASTLQSGVPSRFSGSGSGTEFTLTISSLQPEDFATYYCQQLNSYRYTFGQGTKVEIK | 0.7 |  | 
Fab 175 (Fab, V domains shown) VH: EVQLVESGGGLIQPGGSLRLSCAASGLTVSRNYMSWVRQAPGKGLEWVSLIYSGGSTYYADSVKGRFTISRDNSKNTLYLQMNSLRAEDTAVYYCARDLRGEVWGQGTMVTVSS VL: not shown | 2.4 |  | 
Fab 316 (Fab, V domains shown, also called 316 Fab (glycosylated)) VH: not shown VL: QAVLTQPPSASGSPGQSVTISCTGTSSDVGGYNYVSWYQQHPGKAPKLMIYEVSKRPSGVPDRFSGSKSGNTASLTVSGLQAEDEADYYCSSYAGSNHWVFGGGTKLTVL | 2 |  | 
Fab 281 (Fab, V domains shown) VH: QVQLVESGGGLVQPGGSLRLSCAASGFPFSIYWMSWVRQAPGKGLEWVANIKQDGSEKYYVDSVKGRFTISRDNAKNSLYLHMNSLRGEDTAVYYCASRYYDFRPEAWFDYWGQGTLVTVSS VL: not shown | 1 |  | 
Fab 278 (Fab, V domains shown) VH: QVQLVQSGAEVKKPGASVKVSCKASGYIFIRYGISWVRQAPGQGLEWMGWISANNGYTNYAQKLQGRVTMTTDTSTSTAYMELRSLRSDDTAVYYCARDGGILTGYLDYFDHWGQGTLVTVSS VL: DIQMTQSPSSLSASVGDRLTITCRASQSIASYLNWYQQKPGKAPKLLIYAASSLQSGVPSRFSGSGSGTDFTLTISSLQPEDFATYHCQQSYSTLGITFGPGTKVDIK | 3 |  | 
Fab 45 (Fab, V domains shown) VH: QVQLVESGGGVVQPGRSLRLSCAASGFTFSTYAMHWVRQAPGKGLEWVAVLSYDGSNKYYADSVKGRFTISRDNSKNTLYLQMNSLRAEDTAVYYCAKGGSYAYYYYMDVWGKGTTVTVSS VL: not shown | 5.9 | 0.00046 | 78000
Fab 222 (Fab, V domains shown, Fab) VH: EVQLVESGGGLIQPGGSLRLSCAASGLTVSSNYMSWVRQAPGKGLEWVSVIYSGGSTFYADSVKGRFTISRDNSKNTLYLQMNSLGAEDTAVYYCARGEGSPGNWFDPWGQGTLVTVSS VL: DVVMTQSPGTLSLSPGERATLSCRASQSVPSSYLAWYQQKPGQAPRLLIYGASTRATGIPDRFSGSGSGTDFTLTISRLEPEDFAVYYCQHYDTSPRFGGGTKVDIK | 3 |  | 
Fab 165 (Fab, V domains shown) VH: QVQLVQSGPEVKKPGTSVKVSCKASGFTFTSSAVQWVRQARGQRLEWIGWIVVGSGNTNYAQKFQESVTITRDMSTSTAYMELSSLRSEDTAVYYCAAPHCIGGSCHDAFDIWGQGTMVTVSS VL: DIVMTQSPGTLSLSPGERATLSCRASQSVRSSYLAWYQQKPGQAPRLLIYGASRRGTGIPDRFSGSGSGTDFTLTISRLEPEDFAVYYCQQYGSSPWTFGQGTKVEIK | 4.8 |  | 
Fab 269 (Fab, V domains shown, also called 269 Fab; COVOX-269 Fab) VH: QVQLVESGGGLIQPGGSLRLSCAASGLTVNRNYMSWIRQAPGKGLEWVSVIYSGGSTFYADSVKGRFTISRDNSKNTLSLQMNSLRAEDTAIYYCARDFYEGSFDIWGQGTMVTVSS VL: AIQLTQSPSFLSASIGDRVTITCRASQGISSYLAWYQQKPGKAPKLLIYAASTLQSGVPSRFSGSGSGTEFTLTISSLQPEDFASYYCQQLNSYPAPVFGPGTKVDIK | 2.2 |  | 
Fab 318 (Fab, V domains shown) VH: QVQLVQSGPEVKKPGTSVKVSCKASGFTLTSSAMQWVRQARGQRLEWIGWIVVGSGNTNYAQKFQERVTITRDMSTSTAYMELSSLRSEDTAVYYCAAGRGYNSDFDYWGQGTLVTVSS VL: AIRMTQSPGTLSLSPGERATLSCRASQSVSSSYLAWYQQRPGQAPRLLIYGTSSRATGIPDRFSGSGSGTDFTLTISRLEPEDFAVYYCQQYGYSVYTFGQGTKVDIK | 7.6 |  | 
